The nanobody polyreactivity screen of Harvey et al. (2022)

Test: yeast display, Sf9 membrane polyspecificity reagent, FACS + sequencing; frameworks hold sequencing errors
How it was run: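 Galactose induction of a Saccharomyces cerevisiae BJ5465 synthetic nanobody display library ran 36–48 hours. The cells were then stained for 1 hour at 4 °C with 10% biotinylated, detergent-solubilized Sf9 membrane reagent, pulled down on streptavidin microbeads and FACS-sorted into low and high (top ~1%) gates on expression and reagent-binding fluorescence. Labels for polyreactivity follow the gate of origin.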

Row | Sequence | polyreactivity (PSR sort gate)
1 | QVQLVESGGGLVQAGGSLRLSCAASGRILYRYAMGWYRQATGKERELVAAISWSGGSTYYADSVKGRFTISRDNAKNSVYLQMNSLKPEDTAVYYCAARYKRAYSRDYWGQGTQVTVSS | high polyreactivity
2 | QVQLVESGGGLVQAGGSLRLSCAASGRILYSYAMGWYRQAPGKEREFVAAIRRSGGSTYYADSVKGRFTISRDNAKNTVYLQMNSLKPEDTAVYYCAAGRRYSGSYDYWGQGTQVTVSS | high polyreactivity
3 | QVQLVESGGGLVQAGGSLRLSCAASGRILYVYAMGRYRQAPGKERELVAAITSGGSTHYADSVKGRFTISRDNAKNTVYLQMNSLKPEDTAVYYCAAYTLRNRGGFNYWGQGTQVTVSS | high polyreactivity
4 | QVQLVESGGGLVQAGGSLRLSCAASGRILYWYALGWYRQAPGKERELVAAISRSGGSTSYADSVKGRFTISRDNAKNTVYLQMNSLKPEDTAVYYCAVDRFWRPVRSGTTYDYWGQGTQVTVSS | low polyreactivity
5 | QVQLVESGGGLVQAGGSLRLSCAASGRILYYNDMGWYRQAPGKERELVAAIDRGGSTSYADSVKGRFTISRDNAMNTVYLQMNSLKQEDTAVYYCAVARGGRRKYEYWGQGTQVTVSS | low polyreactivity
6 | QVQLVESGGGLVQAGGSLRLSCAASGRILYYYTMGWYRQAPGKEREFVAAISSRGGSTYADSVKGRFTISRDNAKNTVYLQMNSLKPEDTAVFYCNARLKPRWGGRYDYWGQGTQVTVSS | high polyreactivity
7 | QVQLVESGGGLVQAGGSLRLSCAASGRILYYYVMGWYRPAPGKEREFVAAISSSASNTYYADSVKGRITISRDNAKNTVEFQMNSLKPEDTAVYYCAADTLWLDWQGYDYWGQGTQVTVSS | low polyreactivity
8 | QVQLVESGGGLVQAGGSLRLSCAASGRILYYYVMGWYRQAPGKERELVAAITRGGSTDYADSVKGRFTISLDNAKNTVYLQMNSLKPEDTAVYYCAAVVYLHYSVDYWGQGSQVTVSS | low polyreactivity
9 | QVQLVESGGGLVQAGGSLRLSCAASGRINYFYAIVWSRQAPGKEQELVAAISTSGGSTYYADCVKGRFTISRDNAKNTLYLQMNSLTPEETAVYDCAARFRYYGSEYDYWGQGTQVTVSS | low polyreactivity
10 | QVQLVESGGGLVQAGGSLRLSCAASGRIPVNAMGWYRQAPVKERELVAAISVSGGSTNYADSVKGRFTISRDNAKNTVYLQMNSLKPEDTAVYYCNADPDWWYPYNYWGQGTQVTLSS | low polyreactivity
11 | QVQLVESGGGLVQAGGSLRLSCAASGRIQYNAMGWYRQAPGKEREFVAAISWSGGTTYYADSVKGRFTISRDNAKNTVYLQMNRLKPEDTAVYYCATPYTHWGQGTQVTVSS | high polyreactivity
12 | QVQLVESGGGLVQAGGSLRLSCAASGRISDVYVMVWYRQAPGKERELFAAITWSGGDTYYADSVKGRFTISRDNAKNTVYLQMNSLKPEDTEVYYCTADTGKWGGNGWYDFDYWGQGTQVTVSS | low polyreactivity
13 | QVQLVESGGGLVQAGGSLRLSCAASGRISESNDMGWYRQAPGKEREVVAAISSSGGSTYYADSVKGRFTISRDNAKNTVYLQMNSLKPEETAVDYCNAVYYRTVLKIGVYEYDYWGQGTQVTVST | low polyreactivity
14 | QVQLVESGGGLVQAGGSLRLSCAASGRISFYYAMGWYRQAPGKERELVAAISRGGSTYYADSVKGRFTISRDNAKNTVYLQMNSLKPEDTAVYYCAATYSGVDTPSGYDYWGQGTQVTVSS | low polyreactivity
15 | QVQLVESGGGLVQAGGSLRLSCAASGRISFYYARGWSIQAPGKERELVAAISRGGSTYYADSVKGRFTISRDNAKNTVYLQMNSLKPEDTAVYYCAATYSVVDTPSGYDYWGQGTLVTVSS | low polyreactivity
16 | QVQLVESGGGLVQAGGSLRLSCAASGRISGYAMGWYRQAPGKERELVAAISTRGGTTYYADSVKGRFTISRDNAKNTVYLQMNSLSPEDTAVYYCNAASSRWPEYDYWGQGTQVTVSS | high polyreactivity
17 | QVQLVESGGGLVQAGGSLRLSCAASGRISGYYAMGWYRQAPGKEREFVAAITRSGGSTYYADSVKGRFTISRDNAKNTVYLQMNSLKPEDTAVYYCAADTRGFSYGNGYGYWGQGTQVTVSS | low polyreactivity
18 | QVQLVESGGGLVQAGGSLRLSCAASGRISIKNAMGWYRQAPGQERELVAAIRWSADSTYYADSVKGRFTISRDNAKTTVYLQMNSLKPEDTAVYYCAATGRLRYYWGQGTQVNVSS | high polyreactivity
19 | QVQLVESGGGLVQAGGSLRLSCAASGRISIWYAMGWYRQAPGKERELVARISTSSGRTYYADSVKGRFTISRDNAKNTVYLQMNSLKPEDTAVYYCNAAGYRIYFSTRYDYWGQGTQVTVSS | high polyreactivity
20 | QVQLVESGGGLVQAGGSLRLSCAASGRISIWYDMGWYIQAPGKEREFVASITSGGSTYADSVKGRFTISRDNAKNTVYLQMNSLKPEDTAVYYCAADEAPYVPSEQRHSRFSHWGQGTQVTVSS | low polyreactivity
21 | QVQLVESGGGLVQAGGSLRLSCAASGRISKGYAMGWYRPAPGKERELVAAISWRTSSTYYADSVKGRFTISRDNAKNTVYLQMNSLKPEANAVYYCAAETWLGSWRQVGMDYWGQGTQVTVSS | high polyreactivity
22 | QVQLVESGGGLVQAGGSLRLSCAASGRISLSNAMGWYRQAPGKEREFVAAITKRSDRTYYADSVKGRFTISRDNAKNTVSLQMNSLKPEDTAVYYCAAKPLFGTRDDYWGQGTQVTVSS | low polyreactivity

Row | Sequence | polyreactivity (PSR sort gate)
23 | QVQLVESGGGLVQAGGSLRLSCAASGRISNDYAMGWYRQAPGKDRELVATITFSGGDTYYADSVKGRFTISRDHAKNTVYLQMNSLKPEDTAVYYCAASKWPSYSGGWWRLLFDYWGQGTQVTVSS | low polyreactivity
24 | QVQLVESGGGLVQAGGSLRLSCAASGRISNKYAMGSYRQAPGKERELVAAISYSGGTTYYADSVKGRFTISRDNAKNTVYLQMNSLKPEDTAVYYCARVWSKGYGYYWGYYWGQGSQVTVSS | low polyreactivity
25 | QVQLVESGGGLVQAGGSLRLSCAASGRISNRYAMGWYRQAPGKERELVAAIRRSTTSTYADSVKGRFTISRDNEKNTFYLQMNSLKPEYTAVYYCAARGGRRGGYYSWGQGTQVTVSA | high polyreactivity
26 | QVQLVESGGGLVQAGGSLRLSCAASGRISPNNAMGWYRQAPGKERELVAAITASGGTTYYADSVKGRFTISRDNAKNTVYLQMNSLKPEDTAVYYCAAAVWYRGWYRYDYWGQGTQVTVSS | low polyreactivity
27 | QVQLVESGGGLVQAGGSLRLSCAASGRISPVYAMGWYRQAPGKERELVAAITSGGSTNYADSVKGRFTISRDNAQNTVYLQMNSLKPEDTAVYYCAVEGFSSAAYDFEYWGQGTQVTVSS | high polyreactivity
28 | QVQLVESGGGLVQAGGSLRLSCAASGRISRLYAMGWYRPAPGKERELVAAITDSGGSTYYADSVKGRFTISRDTAKNTVYLQMNSLKPEDTAVYYCAATWSNWYREYYYWGQGTQVTVSS | high polyreactivity
29 | QVQLVESGGGLVQAGGSLRLSCAASGRISRRNAMGWYRQAPGKEREFVATITSSGGCTYYADSVKGRFTISRDNAKNTVYLQMNSLKPEDTAVYYCAARVRGRYTEDYWGQGTQVTVSS | high polyreactivity
30 | QVQLVESGGGLVQAGGSLRLSCAASGRISSANAMGWYRPAPGKERELVAAITWSGGSTYYADSVKGRFTISRDNAKNTVYIQMNSMKQEDTAVYYCAAESSAYGGGTSDAGYESDYWGQGTQVTVSS | low polyreactivity
31 | QVQLVESGGGLVQAGGSLRLSCAASGRISSIYAMGCYRQAPGKERELVATISVRTTGTYYADSVKGRFTISRDNAKNTVYLQMNSLKPEDTAVYYCAAAKRRGYYVKYDYWGQGTQVTVSS | high polyreactivity
32 | QVQLVESGGGLVQAGGSLRLSCAASGRISVRNAMGWYRQAPGKERELVATIRSGGSTNYADSVKGRFTISRDNAKNTVYLQMYSLKPEDTAVYYCATAKLTWRSQGLDYWGQGTQVTVSS | low polyreactivity
33 | QVQLVESGGGLVQAGGSLRLSCAASGRISYGNGMGWYIQAPGKERELVAAISWSTTRTYYADSVKGRFTISRDYAKNTVYLQMNSLKPEDTAVYYCNAAGRPYDFSGGRTMEYWGQGTQVTVSS | high polyreactivity
34 | QVQLVESGGGLVQAGGSLRLSCAASGRISYYAMGWYRQAPGKERELVAVISSRGGSTYYADSVKGRFTISRDNAKNTVYLQMNSLKPEDTAVYYCAADLYYDAWRLYVLGYATMDYWGQGTQVTVSS | high polyreactivity
35 | QVQLVESGGGLVQAGGSLRLSCAASGRITFRNAMVWYRQAPGKERELVASITSGGSTYYADSVKGRFTISRDNAKNTVYLQMNSLKPEDTAVYYCAGEGTARTSPPMDYWGQGTQVTVSS | high polyreactivity
36 | QVQLVESGGGLVQAGGSLRLSCAASGRITFSHNTMGWYRQAPGKERELVAAISSGGRTNYADSVKGRFTISRDNAKNTVYLQMNSLKPEDTGVYYCARESHYDFIYDGMDYWGQGTQVTVSS | low polyreactivity
37 | QVQLVESGGGLVQAGGSLRLSCAASGRIVGWYAMGWYRQAPGKERELVAGINYGGGRTYYADSVKGRFTISRDNAKNTVYLQMNSLKPEDTAVYYCAAGISGHYYWGQGTQVTVSS | high polyreactivity
38 | QVQLVESGGGLVQAGGSLRLSCAASGRIVKRNAMGWYRHAPGKERELVAAISYSGGSTYYADSVKGRFTISRDNAKNTVYLEMMSLKPEDTAVYYCAVDRYPTGITKYDYWGQGTQVTVSS | high polyreactivity
39 | QVQLVESGGGLVQAGGSLRLSCAASGRIVKYAMGWYRQAPGKERELVAAITSGGSTTYADSVKGRFTISRDNAKNTVYLQMNSLKPEDTAVYYCKALRRARYTRKGYEYWGQGTQVTVSS | high polyreactivity
40 | QVQLVESGGGLVQAGGSLRLSCAASGRIVSGYVMGWYRQAPGKERELVAVISRSGGSTYYADSVKGRFTISRDNAKNTVYLQMNSLKPEDTAVYYCDAKHIDGSRGYDYWGQGTQVTVSS | low polyreactivity
41 | QVQLVESGGGLVQAGGSLRLSCAASGRIVTAYAMGWYRPAPGKEREFVAAISSSGGSTYADSVKGRFTISRDNAKNTVYLQINSLKPEDTAVYYCAARYGFYWFPGYYYWGQGTQVTVSS | low polyreactivity
42 | QVQLVESGGGLVQAGGSLRLSCAASGRIVWSYGMGWYRQAPGKERELVAAITNTGDGTYYADSVKGRFTISRDNAKNTVYLQMNSLKPEDTAVYYCAVDYRGYWYWEYDYWGQGTQVTVSS | high polyreactivity
43 | QVQLVESGGGLVQAGGSLRLSCAASGRIWVNAMAWYRQAPRKEMEFVAAISTSSASTYYADSVKGRFTISRDNAKNTVYLQMNSLKPVDTAVYYCAARYLGKKFYYWGQGTQVTVSS | high polyreactivity
